Numbering of substitutions follows the chain as printed.
Tests used:
[1] = test system: T1, Flag-procaspase-8-Myc fusion polypeptide
T1 sequence: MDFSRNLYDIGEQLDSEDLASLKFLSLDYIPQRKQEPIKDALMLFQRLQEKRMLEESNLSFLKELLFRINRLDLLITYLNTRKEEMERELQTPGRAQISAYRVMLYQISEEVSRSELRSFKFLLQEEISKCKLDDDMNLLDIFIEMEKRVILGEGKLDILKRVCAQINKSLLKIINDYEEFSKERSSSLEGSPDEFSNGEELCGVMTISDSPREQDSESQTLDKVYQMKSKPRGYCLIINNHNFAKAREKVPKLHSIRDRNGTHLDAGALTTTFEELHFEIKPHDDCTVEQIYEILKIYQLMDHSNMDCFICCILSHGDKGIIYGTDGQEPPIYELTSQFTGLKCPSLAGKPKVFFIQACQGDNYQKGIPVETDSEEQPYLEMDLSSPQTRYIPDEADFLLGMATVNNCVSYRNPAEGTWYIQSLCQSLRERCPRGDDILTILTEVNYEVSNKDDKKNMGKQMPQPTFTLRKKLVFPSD

[2] = test system: T2, procaspase-8 F355R, F356N
T2 sequence: T1 sequence with F355R, F356N

[3] = test system: T3, procaspase-8 p18 subunit
T3 sequence: T1 sequence

Substance | cleavage (autoradiography) [1] | cleavage (autoradiography) [2] | cleavage (LC-MS of the cleaved p18 fragment) [3]
renin | another aspartyl protease, renin, did not cause procaspase 8 cleavage | – | –
HIV-1 protease | Incubation of wild-type procaspase-8 with HIV protease resulted in a p41 procaspase-8 fragment | an almost negligible amount of cleavage was observed when procaspase-8 F355R, F356N was incubated with HIV protease | This fragment had a weight of 16158 mass units (cleaved form)
